Assay results reported in the supplement of paper PMC10567573.

B1: WDFY1 (parent)
chain: FWNIKQMWDTKTLGLRQHHCRKCG
B2: FBXO34 (parent)
chain: PRYREDPCKQCKKKYVKGDVSLCR

Variants of: B1
Experiment: protein stability index of a GFP-peptide fusion (GPS, HEK-293T) (PSI 1-6); higher = more stable
Conditions: c terminus: a fixed tail appended
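Further: lentivirally expressed fusions sorted by FACS into six bins by GFP to DsRed ratio, PSI derived from sequencing read proportions per bin multiplied by bin number.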

Variant	protein stability index
W2Y	2.74
W2G	1.47
W2A	2.24
G24C	2.22
G24S	2.1
G24P	1.88
G24E	2.18
T12G	1.77
T12W	1.79
T12E	1.72
T12A	2.29
T12R	2.73
T12L	1.36
I4R	1.45
I4C	2.67
I4D	2.56
I4Y	1.9
T10Q	1.91
T10A	1.48
T10E	2.39
N3F	1.96
N3A	1.56
L13Y	2.67
L13R	2.29

Variant	protein stability index
L13F	2.2
L13V	2.15
L13Q	2.02
C23K	2.71
C23W	1.75
C23N	2.57
C20W	2.06
C20L	2.23
R16G	1.64
R16N	2.1
R16M	1.65
R16P	1.8
K5F	2.33
L15Y	1.98
L15G	1.78
L15R	1.93
L15H	2.43
L15E	3.35
K11G	2.08
K11L	1.54
K11Y	1.77
Q17V	1.68
Q17G	2.98
F1N	2.76

Variant	protein stability index
W8F	1.67
W8D	3.27
W8G	2.81
W8S	3.12
K22E	1.6
G14K	1.79
G14A	2.1
G14P	2.11
H19C	2.14
H19F	1.64
H19T	1.59
M7E	2.48
M7P	1.95
M7N	2.46
M7W	1.96
M7S	2.39
M7H	2.9
R21G	1.84
R21D	2.8
R21Y	2.14
Q6H	2.22
Q6G	2.55
Q6N	2.22

Variants of: B2
Experiment: as above
Conditions: c terminus: a fixed tail appended

Variant	protein stability index
D6A	2.46
R2M	2.49
R2S	3.03
R2F	2.66
R2I	2.98
R2W	3.25
R2K	2.52
R2Q	3
R2Y	2.64
R2D	3.03
R2L	2.76
R2T	2
R2C	2.41
R2A	2.96
R2G	3.47
R2V	2.98
R2P	2.75
R2H	2.86
R2E	2.97
R2N	2.85
E5G	2.68
E5Q	2.83
E5W	2.33
E5K	3.27

Variant	protein stability index
E5C	2.7
E5N	2.58
E5L	2.78
E5M	2.66
E5P	2.77
E5D	2.94
E5S	2.58
E5R	2.8
E5F	2.57
E5Y	2.51
E5H	2.76
E5T	2.67
E5A	2.66
E5I	2.46
E5V	2.83
Y3H	2.67
Y3C	2.77
Y3A	3.39
Y3Q	2.74
Y3V	2.28
Y3G	3.39
Y3S	2.8
Y3E	4
Y3I	2.76

Variant	protein stability index
Y3F	2.93
Y3T	2.65
Y3K	2.63
Y3R	3.24
Y3M	2.56
Y3W	2.55
Y3D	2.82
Y3N	2.84
Y3P	3.07
Y3L	2.73
R4M	2.61
R4V	2.77
R4Y	2.66
R4G	3.25
R4D	3.17
R4W	2.01
R4N	2.99
R4P	2.72
R4H	2.96
R4K	2.79
R4Q	2.79
R4A	3.38
R4E	3.3
R4S	2.78

Variant	protein stability index
R4C	2.94
R4F	2.69
R4I	2.67
R4T	2.97
R4L	2.89
P1G	2.89
P1I	2.34
P1V	2.22
P1F	2.61
P1N	3.42
P1M	2.75
P1D	2.96
P1L	1.93
P1Q	2.86
P1W	1.78
P1Y	2.45
P1T	2.75
P1A	3.11
P1C	2.02
P1H	2.85
P1S	2.6
P1K	3.65
P1R	2.96
P1E	3.4
